Drawing on PMC10751729 (Protein Science : A Publication of the Protein Society, 2024), this text covers IC50 for one molecule.

This assay concerns the target GST‐LC3B (human, UniProt Q9GZQ8 1-120). As to the kind of experiment: AlphaScreen or HTRF. Background: Alpha assays give light when donor and acceptor beads are brought close together.

As a reminder, the IC50 is the midpoint of a concentration-inhibition curve. A lower IC50 goes with higher potency. In the case of SGGDDDWTHLS [LIRtide], it took 1700 nM to reach half-maximal inhibition (IC50).
